Data on one molecule can be found in paper PMC2212017.

A word on the stoichiometry N: it is the number of molecules, sites or subunits per partner or assembly.

In the experiment the target is T1, TRPV2 (transient receptor potential vanilloid 2), endogenous in RBL2H3 mast cells (rat (endogenous in RBL2H3)), Q9WUD2.
T1 chain: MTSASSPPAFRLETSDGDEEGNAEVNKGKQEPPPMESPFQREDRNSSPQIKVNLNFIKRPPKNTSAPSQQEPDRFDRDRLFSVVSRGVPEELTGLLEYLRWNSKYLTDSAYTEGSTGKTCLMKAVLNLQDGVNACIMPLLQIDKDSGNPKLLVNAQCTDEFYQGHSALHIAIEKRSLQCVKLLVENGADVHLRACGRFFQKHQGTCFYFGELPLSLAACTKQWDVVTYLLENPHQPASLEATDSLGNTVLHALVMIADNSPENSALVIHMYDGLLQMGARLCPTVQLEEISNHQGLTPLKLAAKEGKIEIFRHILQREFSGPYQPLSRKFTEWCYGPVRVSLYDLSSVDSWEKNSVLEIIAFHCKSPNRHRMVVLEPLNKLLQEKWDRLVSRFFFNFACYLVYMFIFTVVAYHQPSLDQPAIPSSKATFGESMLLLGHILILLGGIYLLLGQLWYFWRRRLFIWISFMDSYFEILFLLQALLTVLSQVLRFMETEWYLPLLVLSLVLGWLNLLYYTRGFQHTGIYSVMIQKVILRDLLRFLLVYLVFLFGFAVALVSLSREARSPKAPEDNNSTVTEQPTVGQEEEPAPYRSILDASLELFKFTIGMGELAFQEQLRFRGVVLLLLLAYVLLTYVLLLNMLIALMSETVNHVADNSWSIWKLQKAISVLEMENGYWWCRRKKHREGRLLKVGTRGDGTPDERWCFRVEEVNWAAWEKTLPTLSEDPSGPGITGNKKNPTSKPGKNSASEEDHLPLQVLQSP
Description: native gel or EMSA. Particulars: remark: other sources report otherwise. For orientation: Mobility shift assays separate free from complexed probe on a gel.

B1: TRPV2 (transient receptor potential vanilloid 2), endogenous in RBL2H3 mast cells, Q9WUD2 1-761 (natural protein)
chain: T1 chain
Turning to B1, the stoichiometry N was determined as 4.
